From article PMC8239462 (The Journal of Biological Chemistry, 2021)
Where “and” joins values, the source holds several entries; their conditions need not be identical. Identical values can stand only once. Like-named read-outs stand apart in the source and are kept apart here.

Columns and labels:
Experiment in all cases: SPR
[1] = molecular target: T1, LRP1 cluster II (CR.3–10), recombinant, secreted from Sf9 cells (human, UniProt Q07954 852-1182)
T1 sequence: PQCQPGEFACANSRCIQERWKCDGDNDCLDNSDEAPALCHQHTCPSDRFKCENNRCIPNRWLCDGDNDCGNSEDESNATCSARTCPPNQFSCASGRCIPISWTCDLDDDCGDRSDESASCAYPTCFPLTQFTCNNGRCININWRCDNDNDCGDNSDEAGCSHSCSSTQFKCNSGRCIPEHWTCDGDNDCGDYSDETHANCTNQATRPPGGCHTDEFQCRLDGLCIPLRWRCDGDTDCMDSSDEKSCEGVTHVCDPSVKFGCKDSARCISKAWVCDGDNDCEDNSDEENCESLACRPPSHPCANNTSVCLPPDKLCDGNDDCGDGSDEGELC

[2] = molecular target: LRP1 cluster IV (CR.21–31), recombinant, secreted from Sf9 cells (human, UniProt Q07954 3332-3778)
[3] = molecular target: T1, LRP1 cluster II (CR.3–10), recombinant, …; remark: listed apart in the source
[4] = molecular target: T1, LRP1 cluster II (CR.3–10), recombinant, …; remark: listed apart in the source

Sequence of LRP1 cluster IV (CR.21–31), recombinant, secreted from Sf9 cells (Q07954 3332-3778): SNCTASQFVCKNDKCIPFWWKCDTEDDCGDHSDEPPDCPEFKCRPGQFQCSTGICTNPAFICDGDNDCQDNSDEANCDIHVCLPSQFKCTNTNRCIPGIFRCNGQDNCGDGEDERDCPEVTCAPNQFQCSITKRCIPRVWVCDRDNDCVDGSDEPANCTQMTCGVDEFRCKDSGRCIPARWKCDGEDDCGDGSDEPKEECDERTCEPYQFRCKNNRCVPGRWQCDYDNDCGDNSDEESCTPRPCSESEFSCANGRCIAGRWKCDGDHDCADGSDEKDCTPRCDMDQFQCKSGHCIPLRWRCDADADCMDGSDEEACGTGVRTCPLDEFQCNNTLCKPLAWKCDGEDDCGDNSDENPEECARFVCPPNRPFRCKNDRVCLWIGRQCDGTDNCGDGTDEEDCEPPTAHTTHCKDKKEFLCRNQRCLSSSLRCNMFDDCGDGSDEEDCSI

B1: RAP (commercial; R&D, 4296-LR) (natural protein, human)
chain: YSREKNQPKPSPKRESGEEFRMEKLNQLWEKAQRLHLPPVRLAELHADLKIQERDELAWKKLKLDGLDEDGEKEARLIRNLNVILAKYGLDGKKDARQVTSNSLSGTQEDGLDDPRLEKLWHKAKTSGKFSGEELDKLWREFLHHKEKVHEYNVLLETLSRTEEIHENVISPSDLSDIKGSVLHSRHTELKEKLRSINQGLDRLRRVSHQGYSTEAEFEEPRVIDLWDLAQSANLTDKELEAFREELKHFEAKIEKHNHYQKQLEIAHEKLRHAESVGDGERVSRSREKHALLEGRTKELGYTVKKHLQDLSGRISRARHNEL
B1 was tested, and the Kd [1] was 1.97 nM and 2.4 nM, the Kd [2] was 1.4 nM and the Kd [3] was 2.66 nM. The Kd [4] was 1.67 nM and 1.2 nM.
